Reference: patent publication US20250152729A1 (CANCER RESEARCH TECHNOLOGY, published 2025)
Numbering of substitutions follows the chain as printed. Names and notes keep the numbering of the source.

T1: mouse SEMA4A expressed on expi293 cells (UniProt ID Q62178) (mouse, UniProt Q62178 33-760)
T1 construct: Transient transfection in expi293 cells
T1 sequence: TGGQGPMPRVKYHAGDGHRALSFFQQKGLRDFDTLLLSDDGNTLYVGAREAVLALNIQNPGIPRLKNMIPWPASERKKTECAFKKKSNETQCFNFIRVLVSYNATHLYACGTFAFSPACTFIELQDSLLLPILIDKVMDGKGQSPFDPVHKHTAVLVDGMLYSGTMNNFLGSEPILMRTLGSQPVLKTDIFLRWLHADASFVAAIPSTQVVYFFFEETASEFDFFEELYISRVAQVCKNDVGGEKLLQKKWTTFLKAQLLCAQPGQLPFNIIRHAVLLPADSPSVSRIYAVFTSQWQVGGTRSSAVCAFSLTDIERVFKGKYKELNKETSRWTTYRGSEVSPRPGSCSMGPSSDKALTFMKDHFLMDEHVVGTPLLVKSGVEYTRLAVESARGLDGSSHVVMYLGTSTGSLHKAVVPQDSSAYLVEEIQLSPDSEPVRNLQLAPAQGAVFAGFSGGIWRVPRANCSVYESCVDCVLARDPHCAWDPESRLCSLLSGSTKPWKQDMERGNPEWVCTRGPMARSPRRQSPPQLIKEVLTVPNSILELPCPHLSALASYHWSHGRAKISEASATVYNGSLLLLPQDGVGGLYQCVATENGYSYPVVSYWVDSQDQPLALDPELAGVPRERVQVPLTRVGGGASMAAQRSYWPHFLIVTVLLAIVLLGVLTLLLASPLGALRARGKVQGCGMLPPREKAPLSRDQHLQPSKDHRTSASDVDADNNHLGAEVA

T2: human SEMA4A expressed on cells (UniProt ID Q9H3S1, isoform 1) (human, UniProt Q9H3S1 33-761)
T2 sequence: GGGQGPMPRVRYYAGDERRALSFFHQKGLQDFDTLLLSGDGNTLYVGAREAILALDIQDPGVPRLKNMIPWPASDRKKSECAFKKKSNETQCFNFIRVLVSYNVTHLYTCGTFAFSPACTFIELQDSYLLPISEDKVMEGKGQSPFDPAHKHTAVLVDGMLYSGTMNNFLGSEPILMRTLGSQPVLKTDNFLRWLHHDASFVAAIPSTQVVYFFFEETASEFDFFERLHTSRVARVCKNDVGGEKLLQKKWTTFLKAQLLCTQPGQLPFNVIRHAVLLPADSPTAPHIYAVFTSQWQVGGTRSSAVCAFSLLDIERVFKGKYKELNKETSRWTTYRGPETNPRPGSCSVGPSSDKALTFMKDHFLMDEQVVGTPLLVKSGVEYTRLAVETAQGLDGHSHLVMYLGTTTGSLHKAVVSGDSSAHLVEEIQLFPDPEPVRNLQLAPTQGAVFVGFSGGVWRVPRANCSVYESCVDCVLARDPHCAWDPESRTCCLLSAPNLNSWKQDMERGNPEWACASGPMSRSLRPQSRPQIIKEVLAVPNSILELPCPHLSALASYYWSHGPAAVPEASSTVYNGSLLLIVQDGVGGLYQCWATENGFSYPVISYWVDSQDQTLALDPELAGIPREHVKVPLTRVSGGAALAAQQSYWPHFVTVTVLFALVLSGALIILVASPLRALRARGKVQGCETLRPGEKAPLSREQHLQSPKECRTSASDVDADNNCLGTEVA

B1: C0120906 human Alya IgG1 (antibody, V domains shown)
VH: EVQLVQSGPEVKKPGASVKISCKASGYKLNDPGVHGVSWVRQAPGQGLEWMGWISTLNGDTRYAQKFQGRVTMATDSSTSTIYMDLRSLKSDDTALYYCARDDYTAIFDFWGRGTLVTVSS
VL: QSVLTQPPSVSVAPGQTASITCGGSNIGSQSVHWYQQKPGQAPVLVVYDDSDRPSGIPERFSGSKSGNTASLILSRVEAGDEADYYCQVWDSSTDHHVFGTGTKVTVL
notes: Fully human, phage display derived; human IgG1 Alya constant (239iCys, S442C, EU); unconjugated
B2: 5Hg4-5Lg5 human Alya IgG1 (antibody, V domains shown)
VH: QVQLVQSGSELKKPGASVKVSCKASGYTFTDYWMHWVRQAPGQGLEWMGAIDTSDSYTSYNQKFKGRFVFSLDTSVSTAYLQICSLKAEDTAVYYCARDYGNFYYYAMDYWGQGTLVTVSS
VL: QSVVTQPPSVSGAPGQRVTISCRSSTGAVTTSNYANWYQQLPGTAPKLLIYGTNNRAPGVPDRFSGSKSGASASLAITGLQAEDEADYYCALWYSNHWVFGGGTKLTVL
notes: Humanised 5E3; human IgG1 Alya constant (239iCys, S442C, EU), lambda light chain; purified, unconjugated
B3: mouse 5E3 expressed as human IgG1 Alya (antibody, V domains shown)
VH: QVQLQQPGAELVMPGASVKMSCKASGYTFTDYWMHWVKQRPGQGLEWIGAIDTSDSYTSYNQKFKGKATLTVDESSSTAYMQLSSLTSEDSAVYYCARDYGNFYYYAMDYWGQGTSVTVSS
VL: QAVVTQESALTTSPGETVTLTCRSSTGAVTTSNYANWVQEKPDHLFTGLIGGTNNRAPGVPARFSGSLIGDKAALTITGAQTEDEAIYFCALWYSNHWVFGGGTKLTVL
notes: Mouse variable domains on human IgG1 Alya constant (pEU1.22; 239iCys and S442C, EU numbering); purified, unconjugated; also called 5E3 IgG1 Alya
B4: C0120903 human Alya IgG1 (antibody, V domains shown)
VH: EVQLVQSGAEVKKPGSSMKVSCKASGGTFNSYTINWVRQAPGQGLEWVGGFIPIFGTADYAQKFHGRVAITADESMSTAYMELSSLRSEDTAVYYCARAPLGSEPFDYWGQGTMVTVSS
VL: SYVLTQPPSVSVAPGQTARITCGGNNIGSKSVHWYQQKPGQAPVLVVYDDSDRPSGIPERFSGSNSGNTATLTISRVEAGDEADYYCQVWDSSSDHLVFGGGTKLTVL
notes: as for B1
B5: C0120917 human Alya IgG1 (antibody, V domains shown)
VH: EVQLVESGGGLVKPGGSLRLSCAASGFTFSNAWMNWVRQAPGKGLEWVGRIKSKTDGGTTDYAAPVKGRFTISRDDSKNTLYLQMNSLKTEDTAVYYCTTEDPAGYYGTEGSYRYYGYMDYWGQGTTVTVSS
VL: NFMLTQPHSVSESPGKTVTISCTASGDTLDNKYVNWYQVRPGSAPATLIFHYEERDSGVPDRFSGSFDASSNSASLTISGLQTADEADYFCQSYDSKRDNLVVFGGGTKVTVL
notes: as for B1
B6: C0120905 human Alya IgG1 (antibody, V domains shown)
VH: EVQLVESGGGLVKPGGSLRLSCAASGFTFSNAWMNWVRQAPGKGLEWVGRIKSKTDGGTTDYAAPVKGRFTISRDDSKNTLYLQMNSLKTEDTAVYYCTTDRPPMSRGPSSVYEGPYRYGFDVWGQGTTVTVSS
VL: NFMLTQPHSVSESPGKTVTISCTGSGGNIVDNFVQWHQQRPGSAPRTVIYEDDQRPSGVPDRFSASVDSSSNSGTLSISGLKTEDEADYYCQSYDGANRWVFGGGTKLTVL
notes: as for B1
B7: 5Hg2-5Lg1 human Alya IgG1 (antibody, V domains shown)
VH: QVQLVQSGAEVKKPGASVKVSCKASGYTFTDYWMHWVRQAPGQRLEWMGAIDTSDSYTSYNQKFKGRVTITRDTSASTAYMELSSLRSEDTAVYYCARDYGNFYYYAMDYWGQGTLVTVSS
VL: QAVVTQEPSLTVSPGGTVTLTCRSSTGAVTTSNYANWFQQKPGQAPRTLIYGTNNRAPWTPARFSGSLLGGKAALTLSGAQPEDEAEYYCALWYSNHWVFGGGTKLTVL
notes: as for B2
B8: 5Hg2-5Lg3 human Alya IgG1 (antibody, V domains shown)
VH: B7 VH
VL: QTVVTQEPSFSVSPGGTVTLTCRSSTGAVTTSNYANWYQQTPGQAPRTLIYGTNNRAPGVPDRFSGSILGNKAALTITGAQADDESDYYCALWYSNHWVFGGGTKLTVL
notes: as for B2
B9: 5Hg1-5Lg1 human Alya IgG1 (antibody, V domains shown)
VH: B7 VH with R44G, I70M, A76T, A79V
VL: B7 VL
notes: as for B2
B10: 5Hg2-5Lg2 human Alya IgG1 (antibody, V domains shown)
VH: B7 VH
VL: B7 VL with S78L
notes: as for B2
B11: 5Hg1-5Lg2 human Alya IgG1 (antibody, V domains shown)
VH: B7 VH with R44G, I70M, A76T, A79V
VL: B7 VL with S78L
notes: as for B2
B12: C0120914 human Alya IgG1 (antibody, V domains shown)
VH: QVQLQESGPGLVKPSETLSLTCTVSGGSVSSGRYDWSWIRQPPGKGLEWIGHIYYTGITDYNPSLRSRVTISADKPKNQFSLKLNSVTAADTAVYYCARGPFFDPWGQGTMVTVSS
VL: QSVLTQPPSVSVAPGQTASLTCGANNIGSKSVQWYQQKPGQAPVLVVYDGSDRPSGIPDRFSGSSSENTATLTISRVEAGDEADYYCQLWDSVTDRPVFGGGTKVTVL
notes: as for B1
B13: C0120918 human Alya IgG1 (antibody, V domains shown)
VH: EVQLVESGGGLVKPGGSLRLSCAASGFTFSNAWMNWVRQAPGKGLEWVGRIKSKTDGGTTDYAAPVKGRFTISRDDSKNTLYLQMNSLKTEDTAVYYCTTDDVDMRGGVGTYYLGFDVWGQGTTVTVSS
VL: SYELTQPPSVSVSPGQTARITCSGDALPKQYAYWYQQKPGQAPVLVIYKDSERPSGIPERFSGSSSGTTVTLTISGVQAEDEADYYCQSADSSGTWVFGGGTKVTVL
notes: as for B1

Key:
[1] = molecular target: T1, mouse SEMA4A expressed on expi293 cells …; experiment: Mirrorball direct binding, dilution series on expi293 cells transiently transfected with mouse SEMA4A, anti-human Alexa Fluor 647
Source text: Hits from the primary screening were re-formatted into the human Alya IgG1 vector and re-expressed and purified as described in section 4.1. In addition, a single clone was identified that contained an Asparagine deamidation motif (Asn Gly) within its VHCDR2. This potential sequence liability was de-risked by synthesising de novo two clonal variant VH genes (Asn Ala and Gln Gly) and cloning these sequences into the human Alya IgG1 expression vector. To determine the specificity profile of each purified human Alya IgG1, a dilution series was tested for binding to human SEMA4A, mouse SEMA4A, cyno SEMA4A, human SEMA4B and mock transfected cells (transient transfections set up in expi 293 cells.) The five assays employed methods described in section 2.3, using the appropriate cells and substituting the un-purified scFv periplasmic preparation with the recombinant human Alya IgG1 dilution series. Data was analysed as Count x median mean intensity (x FLU).

[2] = molecular target: T2, human SEMA4A expressed on cells …; experiment: cell-based or functional assay
[3] = molecular target: T2, human SEMA4A expressed on cells …; experiment: Mirrorball epitope competition on MM.1S cells; competitor: fixed 5E3 mouse IgG1
Source text: The 5E3 epitope competition assay assessed the ability of the un-purified IgGs expressed in a human IgG1 backbone to compete for binding to the mouse 5E3 epitope on human SEMA4A endogenously expressed by MM.1S cells, a human multiple myeloma cell line. The assay utilised a secondary-Alexa Fluor 647 conjugate, 5E3 expressed in a mouse IgG1 (A) backbone (BioLegend®, San Diego, CA, 148402) and a Mirrorball fluorescence cytometer (SPT Labtech, UK). Binding of 5E3 mouse IgG1 to MM.1S cells was measured via an anti-mouse secondary labelled with Alexa Fluor 647 (Invitrogen, A21235) in the presence of a single concentration of each un-purified human IgG1. […] 10 μl undiluted un-purified IgG, contained in Expi293 expression medium (Gibco, UK, A1435101), were added to the assay plate (Greiner Bio-one, UK, 781906), followed by 10 ul of 1.2 nM 5E3 mouse IgG1 and 20 μl MM.1S cell suspension containing 1,500 cells that was spiked with 4 nM anti-mouse Alexa Fluor 647. The assay plate was incubated for 4 hours at room temperature, in the dark prior to reading on a Mirrorball fluorescence cytometer (SPT Labtech, UK) using a 640 nm laser for excitation and measuring emission in the FL-4 channel (650-690 nm). Data was analysed as Count x median mean intensity (x FLU). All dilutions were performed in Hanks' balanced salt solution (Sigma, UK; cat: H8264) containing 0.1% (w/V) BSA (Sigma, UK; cat: A9576). Maximum binding signal was determined by analysing the binding of 5E3 mouse IgG1 to MM.1S cells in the absence of competitor un-purified human IgG1. Background binding signal was determined by analysing the fluorescence generated in the absence of 5E3 mouse IgG1. Data were analysed and graphed using GraphPad Prism software (GraphPad Software, Inc, La Jolla, CA).
Hits from the primary screening were re-formatted into the human Alya IgG1 vector and re-expressed and purified as described in section 4.1. 5E3 epitope competition assay methods are described in section 3.2 and were used to test purified human Alya IgG1s. The purified human Alya IgG1s were diluted to a 4× stock and then serially diluted using 4-fold dilutions to generate a 10 point concentration response curve.

Binder | binding result [1] | IC50 (pM), Fab-ZAP cell kill, NCI-H929 [2] | Max % Cell Kill, Fab-ZAP, NCI-H929 [2] | IC50 [3]
B1 | binds |  |  | 
B2 | binds | 119 pM | 50% | 20.4 nM
B3 | binds | 38 pM | 89% | 0.3 nM
B4 | binds |  |  | 
B5 | binds |  |  | 
B6 | binds |  |  | 
B7 | binds | 38 pM | 78% | 1.1 nM
B8 | binds | 113 pM | 58% | 11.3 nM
B9 | binds | 66 pM | 76% | 2 nM
B10 | binds | 52 pM | 83% | 1.1 nM
B11 | binds | 74 pM | 74% | 2.1 nM
B12 | binds |  |  | 
B13 | binds |  |  | 
